From the Human Domainome abundance scans (Beltran et al. 2025) come the findings set out here.

± gives the uncertainty stated by the source.

B1: POU domain, class 3, transcription factor 2, residues 356 to 411; numbered along this chain, P20265 (parent)
chain: KKRTSIEVSVKGALESHFLKCPKPSAQEITSLADSLQLEKEVVRVWFCNRRQKEKR

In the data set the parent is B1. As to the kind of experiment: abundance fitness (aPCA) (normalised: wild type 0, dead -1); higher = more abundant; growth selection in yeast, the domain comes from the species named. Conditions: Homo sapiens.
Consider KKRTSIEVSVKGALESHFLKCPKPSAQEITSLADSLQLEKEVVRVWFCNRRNKEKR [Q52N], for which the abundance fitness is -0.007 ± 0.1.

In the case of KKRTSIEVSVKGALESHFLKCPKPSAQEITSLADSLQLEKMVVRVWFCNRRQKEKR [E41M], the abundance fitness was -0.791 ± 0.2.

Take KKRTSPEVSVKGALESHFLKCPKPSAQEITSLADSLQLEKEVVRVWFCNRRQKEKR [I6P]: the abundance fitness is -0.213 ± 0.16.

As for KKRTSIEWSVKGALESHFLKCPKPSAQEITSLADSLQLEKEVVRVWFCNRRQKEKR [V8W], the abundance fitness was -0.131 ± 0.1.

For the variant KKRTSIEVSVKGALESHFLKCPKPSAQEITSLADSLQLEKEWVRVWFCNRRQKEKR [V42W], the abundance fitness was -0.147 ± 0.094.

Take KKRTSIEVSTKGALESHFLKCPKPSAQEITSLADSLQLEKEVVRVWFCNRRQKEKR [V10T]: the abundance fitness amounted to 0.046 ± 0.11.

As for KKRTSIEVSVKGALESHFLKYPKPSAQEITSLADSLQLEKEVVRVWFCNRRQKEKR [C21Y], the abundance fitness was -0.506 ± 0.13.

KKRTSIEVSVKGALESHFLKKPKPSAQEITSLADSLQLEKEVVRVWFCNRRQKEKR [C21K]: the abundance fitness was -0.478 ± 0.19.

Take KKRTSIEVSVKGALESAFLKCPKPSAQEITSLADSLQLEKEVVRVWFCNRRQKEKR [H17A]: the abundance fitness was determined as 0.127 ± 0.1.

Regarding KKRTSIEVSVKGALESHFLKCPKPSAQEITSLADSLQLEKEVVRVWFMNRRQKEKR [C48M], the abundance fitness was -0.052 ± 0.15.

Turning to KKRTSIEVSVKGALESHFLKCPKPSAQEITSLADSLQLEKEVVRVWFVNRRQKEKR [C48V], the abundance fitness is -0.015 ± 0.084.

Regarding KKRTSIEVSVKGALESHFLKCPKPSAQEITSLADSLQLEKEVVRVWFQNRRQKEKR [C48Q], the abundance fitness turned out to be 0.141 ± 0.15.

Take KKRTSIEVSVKGALESHFLKCPKPSAQEITSLADSLQLEKEVVRVWFCNRMQKEKR [R51M]: the abundance fitness was -0.156 ± 0.1.

Turning to KKRTSIEVSVKGALESHFLKCPKPSAQEITSLADSLQLEKEVVRVWFCNRTQKEKR [R51T], the abundance fitness is -0.447 ± 0.12.

On to KKRTSIEVSVKGALESHFLKCPKPYAQEITSLADSLQLEKEVVRVWFCNRRQKEKR [S25Y], for which the abundance fitness is -0.798 ± 0.27.

As to KKRTSIEVSVKGALESHFNKCPKPSAQEITSLADSLQLEKEVVRVWFCNRRQKEKR [L19N], the abundance fitness is -0.075 ± 0.15.

Turning to KKRTSIEVSVKGALESHFEKCPKPSAQEITSLADSLQLEKEVVRVWFCNRRQKEKR [L19E], the abundance fitness was -0.026 ± 0.095.

As for KKRTSIEVSVKGALESHFLKCPKPSAQEITSNADSLQLEKEVVRVWFCNRRQKEKR [L32N], the abundance fitness was -1.07 ± 0.3.

For the variant KKRSSIEVSVKGALESHFLKCPKPSAQEITSLADSLQLEKEVVRVWFCNRRQKEKR [T4S], the abundance fitness was -0.029 ± 0.081.

KKRHSIEVSVKGALESHFLKCPKPSAQEITSLADSLQLEKEVVRVWFCNRRQKEKR [T4H]: the abundance fitness is -0.363 ± 0.13.

Regarding KKRTSIEVSVKGALESHFLKCPKPSAQEETSLADSLQLEKEVVRVWFCNRRQKEKR [I29E], the abundance fitness was -0.763 ± 0.31.

With KKRTSIEVSVKGALESHFLKCPKPSAQEITSLADSLQLLKEVVRVWFCNRRQKEKR [E39L], the abundance fitness was -0.847 ± 0.11.

Take KKRTSIEVSVKGALESHFLKCPKPSAQEITSLADSLQLRKEVVRVWFCNRRQKEKR [E39R]: the abundance fitness is -0.404 ± 0.083.

Consider KKRTSIEVSVKGALESHFLKCPKPSAQEITSLADSLQLHKEVVRVWFCNRRQKEKR [E39H], for which the abundance fitness worked out at 0.036 ± 0.12.

As to KKRTSIEVSVKGALESHFLKCPKPSAQEITSLAVSLQLEKEVVRVWFCNRRQKEKR [D34V], the abundance fitness was -0.04 ± 0.081.

Regarding KKRTSIEVSVKGALESHFLKCPKPSAQEITSLAPSLQLEKEVVRVWFCNRRQKEKR [D34P], the abundance fitness is -0.719 ± 0.1.

For the variant KKRTSIEVSVKGALESHFLKCPKPSAQEITSLAMSLQLEKEVVRVWFCNRRQKEKR [D34M], the abundance fitness is 0.01 ± 0.13.

Consider KKRTSIEVSVKGALESHFLKCPKPSAQEITSLAKSLQLEKEVVRVWFCNRRQKEKR [D34K], for which the abundance fitness turned out to be 0.191 ± 0.14.

Consider KKRTQIEVSVKGALESHFLKCPKPSAQEITSLADSLQLEKEVVRVWFCNRRQKEKR [S5Q], for which the abundance fitness is 0.095 ± 0.14.

Regarding KKRTHIEVSVKGALESHFLKCPKPSAQEITSLADSLQLEKEVVRVWFCNRRQKEKR [S5H], the abundance fitness turned out to be 0.095 ± 0.17.

As to KKRTSIEVSVKGALESHFLKCPKPSAQEITSLADSLQLEKEVVRVWFCNRRQKQKR [E54Q], the abundance fitness is -0.177 ± 0.16.

As to KKRTSIEVSVKGALESHFLKCPKPSAQEITSLADSLQLEKEVVRVWFCNRRQKFKR [E54F], the abundance fitness was -0.764 ± 0.22.

With KKRTSIEVSVKGALESHFLKCPKPSAQEITSLADSLQLEKEVVRVWFCNRRQKEIR [K55I], the abundance fitness was -0.036 ± 0.13.

For KKRTSIEVSVKGALESHFLKCPKPSANEITSLADSLQLEKEVVRVWFCNRRQKEKR [Q27N], the abundance fitness was determined as 0.028 ± 0.22.

Take KKRTSIEVSVKGALESHFLKCPKPSAKEITSLADSLQLEKEVVRVWFCNRRQKEKR [Q27K]: the abundance fitness was -0.014 ± 0.15.

On to KKRTSIEVSVKGALESHFLKCPKPSACEITSLADSLQLEKEVVRVWFCNRRQKEKR [Q27C], for which the abundance fitness is -0.081 ± 0.1.

As for KKRTSIEVSVKGALESHFLKCGKPSAQEITSLADSLQLEKEVVRVWFCNRRQKEKR [P22G], the abundance fitness is -0.46 ± 0.09.

For KKRTSIEVSVKGALESHFLKCPWPSAQEITSLADSLQLEKEVVRVWFCNRRQKEKR [K23W], the abundance fitness was -0.336 ± 0.13.

For KKRTSIEVSVKGALESHFLKCPKPSFQEITSLADSLQLEKEVVRVWFCNRRQKEKR [A26F], the abundance fitness was -0.312 ± 0.18.

Consider KKRTSIEVSVKGALESHFLKCPKPSGQEITSLADSLQLEKEVVRVWFCNRRQKEKR [A26G], for which the abundance fitness was -0.141 ± 0.078.

On to KKRTSIEVSVKGALESHFLKCPKPSAQEITSLADSLQLEKEVVRVTFCNRRQKEKR [W46T], for which the abundance fitness is -0.958 ± 0.17.

In the case of KKRTSIEVSVKGALESHFLKCPKPSAQEITSLADSQQLEKEVVRVWFCNRRQKEKR [L36Q], the abundance fitness was -1.25 ± 0.27.

On to KKRTSIEVSVKGALESHFLKCPKPSAQEITSLVDSLQLEKEVVRVWFCNRRQKEKR [A33V], for which the abundance fitness is -0.71 ± 0.13.

Regarding KKRTSIEVSVKGALESHFLKCPKPSAQEITSLADSLQLEKEVVRCWFCNRRQKEKR [V45C], the abundance fitness is -0.294 ± 0.12.

As to KKRTSIEVSVKGALESHFLKCPKPSAQEITSLADSLQLEKEVVRPWFCNRRQKEKR [V45P], the abundance fitness is -0.784 ± 0.13.

For the variant KKRTSIEVSVKGALESHFLKCPKPSAQEITSLADSLQLEKEVVRNWFCNRRQKEKR [V45N], the abundance fitness is -0.006 ± 0.11.

For KKRTSIEVSVKGALESHFLKCPKPSAQEITSLADSLPLEKEVVRVWFCNRRQKEKR [Q37P], the abundance fitness was -0.916 ± 0.15.
